From patent US20240158494A1 (Biogen, published 2024)
Numbering of substitutions follows the chain as printed. Names may count otherwise.

B1: Rabbit ANTIBODY-A chi Fab (Fab, V domains shown)
VH: QSLEESGGGLVQPGASLTLTCKASGIDFSSSGYMCWVRQAPGKGLEWIGCIYTYSSNTYYASWAKGRFTISKTSSTTVTLQMTSLTAADTATYFCARGTYGYTGYTYTMGYFSLWGPGTLVTVSS
VL: ELDMTQTPASVEAAVGGTVTIKCQASQNINSYLAWYQQKPGQPPKLLIYRASTLASGVPSRFKGSGSGTEFTLTISDLECADAATYYCQSYYYSGSSNYNAFGGGTELEIL
notes: chimeric Fab, rabbit variable regions; constant regions of the Fab not specified (chimeric antibodies were made with a human IgG1 framework); also called chimeric rabbit Fab fragment of RabANTIBODY-A
B2: Rabbit ANTIBODY-B chi Fab (Fab, V domains shown)
VH: QSLEESGGGLVQPEGSLTLTCKASGFSFSNSYWICWVRQAPGKGLEWIGCINTDADSTNYASWARGRFTISKTSSTTVTLQMTSLTAADTASYFCARQNNVFDPGYNLWGPGTLVTVSS
VL: ELVLTQTPASVSEAVGGTVTIKCQASQNIGSNLAWYQQKPGQPPKLLIYDASKLASGVPSRFSGSGSGTEFTLTISDLECADAATYYCQCTVRGGAYGNAFGGGTEVVVK
notes: chimeric Fab, rabbit variable regions; constant regions of the Fab not specified (chimeric antibodies were made with a human IgG1 framework); also called chimeric rabbit Fab fragment of RabANTIBODY-B
B3: TfR1 ANTIBODY-A HC-H4C hIgG1 Fab′(1C)/LC-L1 hKappa (Fab, V domains shown)
VH: QSLVESGGGLVQPGGSLRLSCKASGIDFSSSGYMCWVRQAPGKGLEWVGCIYTYSSNTYYASWAKGRFTISKTSSTTVYLQMNSLKTEDTAVYYCARGTYGYTGYTYTMGYFSLWGPGTLVTVSS
VL: DIQMTQSPSTLSASVGDRVTITCQASQNINSYLAWYQQKPGKAPKLLIYRASTLASGVPSRFSGSGSGTEFTLTISSLQPDDFATYYCQSYYYSGSSNYNAFGGGTKVEIKR
notes: also called ANTIBODY-A H4C/L1
B4: TfR1 ANTIBODY-A HC-H2C hIgG1 Fab′(1C)/LC-L1 hKappa (Fab, V domains shown)
VH: B3 VH with K22A, S62A, W63S, A64V, P117Q
VL: B3 VL
notes: also called ANTIBODY-A H2C/L1
B5: TfR1 ANTIBODY-A HC-H3C hIgG1 Fab′(1C)/LC-L1 hKappa (Fab, V domains shown)
VH: B3 VH with T73D, S75K, T76N, T77S
VL: B3 VL
notes: also called ANTIBODY-A H3C/L1
B6: TfR1 ANTIBODY-B HC-H0C hIgG1 Fab′(1C)/LC-L2 hKappa (Fab, V domains shown)
VH: QVQLVESGGGVVQPGRSLRLSCAASGFSFSNSYWICWVRQAPGKGLEWVGCINTDADSTNYADSVKGRFTISRDNSKNTLYLQMNSLRAEDTAVYYCARQNNVFDPGYNLWGQGTLVTVSS
VL: ELVLTQSPSTLSASVGDRVTITCRASQNIGSNLAWYQQKPGKAPKLLIYDASKLESGVPSRFSGSGSGTEFTLTISSLQPDDFATYYCQCTVRGGAYGNAFGGGTKVEIKR
notes: also called ANTIBODY-B H0C/L2

Target: T1, recombinant cynomolgus monkey TfR1 extracellular domain, His-tagged (cynomolgus monkey, UniProt Q5RDH6 87-760 (Pongo abelii entry))
T1 construct: also called Cyno TfR1 ECD; cyno TfR1 ECD-His
Assay: SPR, TfR1 ECD-His captured, in the presence of 1 mM holo human transferrin

Going from B1 to B2, the Kd falls from 43 nM to 3.5 nM (12-fold).

Going from B1 to B2, the koff falls from 0.01 s⁻¹ to 0.00094 s⁻¹ (11-fold).

B1 and B2 are within 1.5-fold of each other in kon: 230000 M⁻¹ s⁻¹ for the first, 270000 M⁻¹ s⁻¹ for the second.

Target: T2, recombinant human TfR1 extracellular domain, His-tagged (human, UniProt P02786 89-760)
T2 construct: also called Human TfR1 ECD; human TfR1 ECD-His
Assay: as above

B1 and B2 are within 1.5-fold of each other in Kd: 6.8 nM for the first, 8.2 nM for the second.

B1 and B2 are within 1.5-fold of each other in koff: 0.0012 s⁻¹ for the first, 0.0015 s⁻¹ for the second.

B1 and B2 are within 1.5-fold of each other in kon: 170000 M⁻¹ s⁻¹ for the first, 180000 M⁻¹ s⁻¹ for the second.

Target: T3, human transferrin receptor 1 (TfR1), full length, expressed on cells (human, UniProt P02786 1-760)
T3 construct: also called human TfR1; huTfR
Assay: FACS on Ba/F3 cells, purified Fab

B3 and B4 are within 1.5-fold of each other in EC50: 1.8 nM for the first, 1.3 nM for the second.

B5 was tested, and the EC50 was 1.5 nM.

Target: T4, cynomolgus monkey transferrin receptor 1 (TfR1), full length, expressed on cells (cynomolgus monkey, UniProt Q5RDH6 1-760 (Pongo abelii entry))
T4 construct: also called cyno TfR1; cyTfR
Assay: FACS on Ba/F3 cells, purified Fab

B3 and B4 are within 1.5-fold of each other in EC50: 2.4 nM for the first, 3.3 nM for the second.

For B5, the EC50 was 5.5 nM.

Target: T1, recombinant cynomolgus monkey TfR1 …
Assay: SPR, TfR1 ECD-His captured, Fab injected, 1:1 fit

B3 and B4 are within 1.5-fold of each other in Kd: 2.6 nM for the first, 3 nM for the second.

First: B5
Second: B1
The Kd of the first is 7.1-fold lower: 4.1 nM for the first, 29 nM for the second.

Compared with B2, B6 is 4.3-fold higher in Kd: 1.5 nM for the first, 6.5 nM for the second.

First: B3
Second: B4
The koff of the first is 1.7-fold lower: 0.0114 s⁻¹ for the first, 0.0195 s⁻¹ for the second.

B5 and B1 are within 1.5-fold of each other in koff: 0.0106 s⁻¹ for the first, 0.00925 s⁻¹ for the second.

Going from B2 to B6, the koff rises from 0.000436 s⁻¹ to 0.00136 s⁻¹ (3.1-fold).

B3 and B4 are within 1.5-fold of each other in kon: 4.4e+06 M⁻¹ s⁻¹ for the first, 6.56e+06 M⁻¹ s⁻¹ for the second.

Compared with B5, B1 is 8.1-fold lower in kon: 2.58e+06 M⁻¹ s⁻¹ for the first, 317000 M⁻¹ s⁻¹ for the second.

B2 and B6 are within 1.5-fold of each other in kon: 283000 M⁻¹ s⁻¹ for the first, 210000 M⁻¹ s⁻¹ for the second.

Target: T2, recombinant human TfR1 extracellular …
Assay: SPR, TfR1 ECD-His captured, Fab injected, 1:1 fit

B3 and B4 are within 1.5-fold of each other in Kd: 0.91 nM for the first, 1.2 nM for the second.

First: B5
Second: B1
The Kd of the first is 4.3-fold lower: 1.2 nM for the first, 5.2 nM for the second.

Going from B2 to B6, the Kd rises from 5.8 nM to 14.1 nM (2.4-fold). The first binds more tightly here.

B3 and B4 are within 1.5-fold of each other in koff: 0.000894 s⁻¹ for the first, 0.000947 s⁻¹ for the second.

B5 and B1 are within 1.5-fold of each other in koff: 0.00126 s⁻¹ for the first, 0.00101 s⁻¹ for the second.

Compared with B2, B6 is 6-fold higher in koff: 0.000573 s⁻¹ for the first, 0.00343 s⁻¹ for the second.

B3 and B4 are within 1.5-fold of each other in kon: 983000 M⁻¹ s⁻¹ for the first, 773000 M⁻¹ s⁻¹ for the second.

Compared with B5, B1 is 5.3-fold lower in kon: 1.02e+06 M⁻¹ s⁻¹ for the first, 192000 M⁻¹ s⁻¹ for the second.

Compared with B2, B6 is 2.5-fold higher in kon: 99200 M⁻¹ s⁻¹ for the first, 244000 M⁻¹ s⁻¹ for the second.

Target: T1, recombinant cynomolgus monkey TfR1 …
Assay: SPR, TfR1 ECD-His captured, Fab 50 and 500 nM, no transferrin

First: B1
Second: B2
The Kd of the first is 11-fold higher: 43 nM for the first, 3.8 nM for the second. The second binds more tightly here.

Going from B1 to B2, the koff falls from 0.01 s⁻¹ to 0.00095 s⁻¹ (11-fold).

B1 and B2 are within 1.5-fold of each other in kon: 230000 M⁻¹ s⁻¹ for the first, 250000 M⁻¹ s⁻¹ for the second.

Target: T2, recombinant human TfR1 extracellular …
Assay: as above

First: B1
Second: B2
The Kd of the first is 1.7-fold lower: 7 nM for the first, 12 nM for the second. The first binds more tightly here.

Going from B1 to B2, the koff rises from 0.0012 s⁻¹ to 0.0018 s⁻¹ (1.5-fold).

B1 and B2 are within 1.5-fold of each other in kon: 170000 M⁻¹ s⁻¹ for the first, 140000 M⁻¹ s⁻¹ for the second.

Target: T3, human transferrin receptor 1 (TfR1), …
Assay: FACS on Ba/F3 cells, Fab supernatant

B3 and B4 are within 1.5-fold of each other in EC50: 2.2 nM for the first, 2.6 nM for the second.

In the case of B5, the EC50 is reported as 2.1 nM.

Target: T4, cynomolgus monkey transferrin receptor …
Assay: FACS on Ba/F3 cells, Fab supernatant

Compared with B3, B4 is 1.8-fold higher in EC50: 1.8 nM for the first, 3.3 nM for the second.

For B5, the EC50 was 4.5 nM.

Target: T3, human transferrin receptor 1 (TfR1), …
Assay: FACS on Ba/F3 cells, Fab supernatant
Remark: another data set of the same source

For B6, the EC50 was 9.3 nM.

Target: T4, cynomolgus monkey transferrin receptor …
Assay: FACS on Ba/F3 cells, Fab supernatant
Remark: another data set of the same source

With B6 the EC50 was 5.5 nM.
